Data from patent US5723594.

Target: PDGF-AB (Homo sapiens) (UniProt P04085+P01127)
Assay: filter

Chain of PDGF-AB (Homo sapiens) (P01127 82-190, chain 2 of 2, other chains not shown): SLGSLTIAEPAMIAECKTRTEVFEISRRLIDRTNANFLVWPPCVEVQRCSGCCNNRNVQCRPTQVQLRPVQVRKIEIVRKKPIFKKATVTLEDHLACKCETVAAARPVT

Sequence	binding signal (fold weaker than round 12 pool) (initial random library)	Kd (round 12 enriched pool, data not shown)
ATCCGCCTGATTAGCGATACTNNNNNNNNNNNNNNNNNNNNNNNNNNNNNNNNNNNNNNNNACTTGAGCAAAATCACCTGCAGGGG [random ssDNA library]	700	–
ATCCGCCTGATTAGCGATACTNNNNNNNNNNNNNNNNNNNNNNNNNNNNNNNNNNNNNNNNACTTGAGCAAAATCACCTGCAGGGG [ssDNA SELEX round 12 pool]	–	0.05 nM
